For two proteins, Km, kcat and kcat/Km results are on record in article PMC3135787.

Substrate in the data set “Hint1 activity assay”: COc1nc(N)nc2c1ncn2[C@@H]1O[C@H](COP(=O)(O)N[C@@H](C)C(=O)O)[C@@H](O)[C@@]1(C)F
Put plainly: Hint1 activity assay. Format: biochemical. Particulars: other: Hint1, 37 °C, pH 7.2.

Substrate in data set [1]: Nc1nc2c(ncn2[C@@H]2O[C@H](COP(=O)(O)O)[C@@H](O)[C@H]2O)c(=O)[nH]1
Nature of the data set: hGUK1-mediated phosphorylation, coupled spectrophotometric assay. The format is biochemical, human. The following applies: other: hGUK1, 37°C.

B1: Hint1 (Homo sapiens) (protein)
chain: MADEIAKAQVARPGGDTIFGKIIRKEIPAKIIFEDDRCLAFHDISPQAPTHFLVIPKKHISQISVAEDDDESLLGHLMIVGKKCAADLGLNKGYRMVVNEGSDGGQSVYHVHLHVLGGRQMHWPPG
On to B1, for which, in “Hint1 activity assay”, the Km was 445 ± 182 µM and the kcat was determined as 0.0573 s⁻¹.

B2: Human guanylate kinase (hGUK1) (Homo sapiens) (protein)
chain: MSGPRPVVLSGPSGAGKSTLLKRLLQEHSGIFGFSVSHTTRNPRPGEENGKDYYFVTREVMQRDIAAGDFIEHAEFSGNLYGTSKVAVQAVQAMNRICVLDVDLQGVRNIKATDLRPIYISVQPPSLHVLEQRLRQRNTETEESLVKRLAAAQADMESSKEPGLFDVVIINDSLDQAYAELKEALSEEIKKAQRTGA
B2: in data set [1], the Km worked out at 19.1 ± 4.5 µM, the kcat stood at 74.7 ± 17.6 s⁻¹ and the kcat/Km stood at 3.9e+06 M⁻¹ s⁻¹.
